# In patent US20250387450A1:
# Target: CD74 disordered region peptide (CLIP), …
# Experiment: modified sandwich ELISA, fluorescence grade by the table's key
substance,measurement,value
FlhG,fluorescent signal (fluorescentsignal),100000 to 250000
